According to article PMC11251518, “A novel reporter for helicase activity in translation uncovers DDX3X interactions” (RNA, 2024):

Target: T1, Saccharomyces cerevisiae eIF4E (S. cerevisiae, UniProt P07260 1-213, ^15N labeled)
T1 construct: eIF4E of Saccharomyces cerevisiae; source: E. coli BL21-star, purified (nickel resin, TEV cleavage, m^7G cap resin)
T1 sequence (looked up): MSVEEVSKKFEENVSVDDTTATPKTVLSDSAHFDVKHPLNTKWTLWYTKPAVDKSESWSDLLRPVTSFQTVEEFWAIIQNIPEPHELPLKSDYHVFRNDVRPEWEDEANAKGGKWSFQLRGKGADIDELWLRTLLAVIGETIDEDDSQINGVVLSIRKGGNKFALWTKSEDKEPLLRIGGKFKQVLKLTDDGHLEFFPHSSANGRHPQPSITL
Assay: NMR titration; ^15N HSQC of 200 μM ^15N S. cerevisiae eIF4E with 250 μM m^7GTP; peptide added to 1 mM; 50 mM phosphate pH 6.5, 50 mM KCl, 298 K, 900 MHz
Details: both partners purified

binding result: binds
B1: 4E-BP1 peptide (amino acids 51–67) (peptide)
peptide: RIIYDRKFLMECRNSPV
notes: human 4E-BP1, amino acids 51–67; also called human 4E-BP1 amino acids 51–67; source: synthetic peptide (Elim Bio)
